Like-named read-outs stand apart in the source and are kept apart here.

Holding throughout (test): NMR titration
The target of test [1] is 3-fluorotyrosine labeled A34F variant of the B1 domain of protein G (T2Q background).
Test [2] shares this target. This is another data set of the same source.
For test [3] the target is unchanged. The source holds these as a separate data set.
For test [4] the target is unchanged. This is another data set of the same source.
Test [5] shares this target. This is another data set of the same source.
For test [6] the target is unchanged. The source holds these as a separate data set.
Test [7] has the same target. This is another data set of the same source.
The target is the same in test [8]. This is another data set of the same source.
Test [9] shares this target. This is another data set of the same source.
The target is the same in test [10]. The source holds these as a separate data set.

As for “3-fluorotyrosine labeled A34F variant of the B1 domain of protein G (T2Q background) (domain or fragment)”, the Kd (commonly the free concentration of one partner at which half of the binding sites on the other are occupied at equilibrium, for simple one-to-one binding) in test [1] turned out to be 25 µM; in test [2], 90 µM; in test [3], 55 µM; in test [4], 85 µM; in test [5], 45 µM; in [6], 26 µM. For the same substance, the Kd in test [7] is 95 µM; in test [8] it was 80 µM; in test [9], 17 µM; in [10], 59 µM.

These data come from PMC5985514.
